Results published in patent publication US20020110800.

Target: wild-type TrkA, baculovirus-expressed, activated (autophosphorylated) (UniProt P04629)

B1: SHP-2 (enzyme, UniProt Q06124 2-593, looked up, species assumed)
Tyrosine-protein phosphatase non-receptor type 11: TSRRWFHPNITGVEAENLLLTRGVDGSFLARPSKSNPGDFTLSVRRNGAVTHIKIQNTGDYYDLYGGEKFATLAELVQYYMEHHGQLKEKNGDVIELKYPLNCADPTSERWFHGHLSGKEAEKLLTEKGKHGSFLVRESQSHPGDFVLSVRTGDDKGESNDGKSKVTHVMIRCQELKYDVGGGERFDSLTDLVEHYKKNPMVETLGTVLQLKQPLNTTRINAAEIESRVRELSKLAETTDKVKQGFWEEFETLQQQECKLLYSRKEGQRQENKNKNRYKNILPFDHTRVVLHDGDPNEPVSDYINANIIMPEFETKCNNSKPKKSYIATQGCLQNTVNDFWRMVFQENSRVIVMTTKEVERGKSKCVKYWPDEYALKEYGVMRVRNVKESAAHDYTLRELKLSKVGQGNTERTVWQYHFRTWPDHGVPSDPGGVLDFLEEVHHKQESIMDAGPVVVHCSAGIGRTGTFIVIDILIDIIREKGVDCDIDVPKTIQMVRSQRSGMVQTEAQYRFIYMAVQHYIETLQRRIEEEQKSKRKGHEYTNIKYSLADQTSGDQSPLPPCTPTPPCAEMREDSARVYENVGLMQQQKSFR
  dephosphorylation of 32P-autophosphorylated Trk in vitro: approximately 5-fold dephosphorylation
